Results from paper PMC4479991.

Assays:
[1] = target: T1, zif268_GST (uncleaved fusion) (UniProt P08046 333-421); experiment: EMSA; 1:300 DNA:protein; EMSA: binding on ice, at least 1 h, native PAGE 8% (oligos) or 3.5% (1 kb), salt up to 1 M KCl; nanopore: 1 M KCl, 30 min incubation at 200:1 protein:DNA; pH no
[2] = target: T2, zif268 (EGR1 DNA-binding domain), cleaved (UniProt P08046 333-421); experiment: as above
[3] = target: T2, zif268 (EGR1 DNA-binding domain), …; experiment: EMSA; up to 1 M KCl; binding saturates at about 1:200 DNA:protein; EMSA: binding on ice, at least 1 h, native PAGE 8% (oligos) or 3.5% (1 kb), salt up to 1 M KCl; nanopore: 1 M KCl, 30 min incubation at 200:1 protein:DNA; pH no
[4] = target: T1, zif268_GST (uncleaved fusion); experiment: EMSA; EMSA: binding on ice, at least 1 h, native PAGE 8% (oligos) or 3.5% (1 kb), salt up to 1 M KCl; nanopore: 1 M KCl, 30 min incubation at 200:1 protein:DNA; pH no
[5] = target: T2, zif268 (EGR1 DNA-binding domain), …; experiment: as above

B1: (+) 50 bp oligo, 2 sites separated by 6 bp (dsDNA)
DNA 1: CAGGCGTGGGCGCTGCAGGCGTGGGCGCC
DNA 2: TCGAGGCGCCCACGCCTGCAGCGCCCACGCCTGGTAC
- binding result [1]: binds
- binding result [2]: binds

B2: Atto-647 50 bp oligo, 1 site (dsDNA)
DNA 1: AGTCTGTTACGCTGGCCTCTGCGTGGGCGAATTCGCATGCGCAACCCCAC
DNA 2: GTGGGGTTGCGCATGCGAATTCGCCCACGCAGAGGCCAGCGTAACAGACT
- binding result [3]: binds

B3: (-) 50 bp oligo, no site (dsDNA)
DNA 1: CAGTATGCAAATGACTGCAGTATGCAAATGACC
DNA 2: TCGAGGTCATTTGCATACTGCAGTCATTTGCATACTGGTAC
- binding result [4]: no binding
- binding result [5]: no binding
